For assay [1], the target named is T1, HDAC8 (UniProt Q9BY41 1-377).
T1 construct: Expressed in E. coli BL21(DE3) CodonPlus, purified on Ni-NTA and Q Sepharose; also called HAC8; histone deacetylase 8; not shown: C-terminal TEV site and His6 tag by the plasmid's name (pHD4-HDAC8-TEV-His6)
T1 sequence (looked up): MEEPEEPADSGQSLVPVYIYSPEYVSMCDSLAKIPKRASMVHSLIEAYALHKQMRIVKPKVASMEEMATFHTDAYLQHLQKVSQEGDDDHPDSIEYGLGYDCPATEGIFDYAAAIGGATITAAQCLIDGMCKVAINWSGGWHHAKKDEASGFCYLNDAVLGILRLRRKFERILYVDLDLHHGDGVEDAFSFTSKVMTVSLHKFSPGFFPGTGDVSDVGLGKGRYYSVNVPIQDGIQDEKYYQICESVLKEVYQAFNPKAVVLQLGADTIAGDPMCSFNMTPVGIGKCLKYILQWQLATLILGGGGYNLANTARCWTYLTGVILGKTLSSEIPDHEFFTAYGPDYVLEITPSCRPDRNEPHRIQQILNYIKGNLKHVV
Kind of assay: fluorescence polarization, 25 nM 5-FAM peptide, protein titrated. (In general: Polarisation of emitted light reports the rotation of a fluorescent probe.)

In assay [2] the target is T1, HDAC8. Kind of assay: cell-based or functional assay.
Assay [3] has as its target T1, HDAC8. Kind of assay: fluorescence polarization (summary sentence of the example).
Method: The fluorescence polarization was measured in a microplate reader at Ex/Em=490 nm/520 nm.

The values that follow come from US20230139680A1 (TEXAS A AND M UNIVERSITY SYSTEM, published 2023).

Starred links: 1 amine or outer side, 2 acyl side, 3 side chain; linkers in the order of their positions; H or OH if unused. Positions of bridges follow the written chain, without caps; N, C: chain ends. Non-standard residues stand in square brackets, D forms with d. No end group written: not given here. *: point of attachment. AcrK = N6-acryloyl-L-lysine, C=CC(=O)NCCCC[C@H](N[*:1])C(=O)[*:2]; 5FAM = O=C1OC2(c3ccc(O)cc3Oc3cc(O)ccc32)c2ccc(C(=O)*)cc21

B1: 5-FAM-conjugated LinH8a (peptide)
peptide: CQSLWMNKK(5FAM)-NH2
modifications: N-terminus assumed
SMILES: CSCC[C@H](NC(=O)[C@H](Cc1c[nH]c2ccccc12)NC(=O)[C@H](CC(C)C)NC(=O)[C@H](CO)NC(=O)[C@H](CCC(N)=O)NC(=O)[C@@H](N)CS)C(=O)N[C@@H](CC(N)=O)C(=O)N[C@@H](CCCCN)C(=O)N[C@@H](CCCCNC(=O)c1ccc2c(c1)C(=O)OC21c2ccc(O)cc2Oc2cc(O)ccc21)C(N)=O
notes: Linear counterpart with plain Lys in place of AcrK; also called linear counterpart of 5FAM-CycH8a
For the molecule B1, the Kd (usually the equilibrium constant for the complex coming apart) in assay [1] was greater than 50 µM.

B2: 5-FAM-conjugated CycH8a (peptide)
peptide: CQSLWMN[AcrK]K(5FAM)-NH2
modifications: bridge 1-8; not fully specified (bridges)
notes: also called 5FAM-CycH8a; 5FAM-cycH8a
With B2, the “IC50 of inhibition of HDAC8 deacetylation of Boc-AcK-AMC (fluorogenic, trypsin-coupled activity assay)” value in assay [2] was 9.7 µM. For the same molecule, the “fold stronger affinity than its linear counterpart” value in assay [3] amounted to 6 fold. Further, in assay [1], the equilibrium dissociation constant (Kd) worked out at 7.1 µM.
